Measurements from US8969034B2, “Endoglycosidases that cleave O-linked glycans” (New England Biolabs, Inc., priority 2008, dated 2015).

Legend:
[1] = test system: Bifidobacterium longum endo-α-GalNAcase EngBF, SEQ ID NO:5; conditions: Core 1 substrate; data from Fujita et al. (2005); cited from earlier work
[2] = target: Propionibacterium acnes endo-α-GalNAcase EngPA (YP_056270.1), SEQ ID NO:3 (Cutibacterium acnes, UniProt A0ABM7H013); test: Steady-state enzyme kinetics of EngPA; conditions: EngPA compared with EngEF
[3] = test system: CC(=O)N[C@H]1[C@@H](Oc2ccc([N+](=O)[O-])cc2)O[C@H](CO)[C@H](O)[C@@H]1O[C@@H]1O[C@H](CO)[C@H](O)[C@H](O)[C@H]1O; test: purified protein, by the assay type; conditions: 25.0 °C
[4] = Hydrolysis of pNP substrates, colorimetric assay (Core 1); format: biochemical; conditions: Galβ1,3GalNAcα1pNP Core 1, 0.25 mM substrate, 25° C., 16 h, 405 nm
[5] = Hydrolysis of pNP substrates, colorimetric assay (Core 2); format: biochemical; conditions: Galβ1,3(GlcNAcβ1,6)GalNAcα1pNP Core 2, 25° C., 16 h, 405 nm
[6] = Hydrolysis of pNP substrates, colorimetric assay (Core 3); format: biochemical
[7] = Hydrolysis of pNP substrates, colorimetric assay (Galβ1,3GlcNAc); format: biochemical
[8] = Hydrolysis of pNP substrates, colorimetric assay (GalNAc); format: biochemical; conditions: GalNAcα1pNP, 25° C., 16 h, 405 nm
[9] = Transglycosylation to 1-alkanols, Core 3 donor (TLC); format: biochemical; conditions: 0.8 mM GlcNAcβ1,3GalNAcα1ρNP donor, 1-alkanols as acceptors, room temperature, 16 h
Text: The transglycosylation activity can be similarly determined for EngAA*.

[10] = test system: CC(=O)N[C@H]1[C@H](O[C@H]2[C@@H](O)[C@@H](CO)O[C@H](Oc3ccc([N+](=O)[O-])cc3)[C@@H]2NC(C)=O)O[C@H](CO)[C@@H](O)[C@@H]1O; test: purified protein, by the assay type; conditions: other: Core 3 substrate, 25° C., average of three measurements

Molecule | % product released [4] [%] | % product released [5] [%] | % product released [6] [%] | % product released [7] [%] | % product released [8] [%] | transglycosylation products [9] | also measured
CC(=O)N[C@H]1[C@@H](Oc2ccc([N+](=O)[O-])cc2)O[C@H](CO)[C@H](O)[C@@H]1O[C@@H]1O[C@H](CO)[C@H](O)[C@H](O)[C@H]1O [Galβ1,3GalNAcα1ρNP] | – | – | – | – | – | – | Km [1]: 21.8 µM; kcat [1]: 17.8 s⁻¹; kcat, times lower than EngEF ([2]; Core 1 substrate): about 25 times
CC(=O)N[C@H]1[C@H](O[C@H]2[C@@H](O)[C@@H](CO)O[C@H](Oc3ccc([N+](=O)[O-])cc3)[C@@H]2NC(C)=O)O[C@H](CO)[C@@H](O)[C@@H]1O [GlcNAcβ1,3GalNAcα1ρNP] | – | – | – | – | – | – | kcat, times higher than EngEF ([2]; Core 3 substrate): 3 times
Clostridium perfringens endo-α-GalNAcase EngCP (YP_695137.1), SEQ ID NO:6 (Clostridium perfringens ATCC 13124) | – | – | – | – | – | – | Km [3]: 70.93 µM; kcat [3]: 19.9 s⁻¹
EngSP: endo-α-GalNAcase from Streptococcus pneumoniae, purchased from Roche [reference compound] | 100 | 0.6 | 3 | 0 | 1.2 | no significant difference | –
Enterococcus faecalis endo-α-GalNAcase EngEF (NP_815498.1), SEQ ID NO:2 (Enterococcus faecalis V583) | – | – | – | – | – | – | kcat [10]: 9.43 s⁻¹
Propionibacterium acnes endo-α-GalNAcase EngPA (YP_056270.1), SEQ ID NO:3 (Cutibacterium acnes subsp. acnes) | – | – | – | – | – | – | kcat [10]: 28.9 s⁻¹
EngEF: recombinant endo-α-GalNAcase (O-glycosidase) of Enterococcus faecalis (protein, listed as Enterococcus faecalis) MKHGKIKRFSTLTLLASATILVPLSTSAEETTNSSTETSSSMVEPTATEEKLWQSDFPGGKTGEWQDVIGKTNRELAGESLAISRDAAAGNNAVSLNLDSPKLADGEVETKFKYTAGSGRTGVIIRGNTKDSWVFVGYNANGKWLVESPNSWNDSISGPTLNEDTNYLLKVRYVGEKITIWLNTTLIYEGEPVLANGDKIPTEAGHVGVRLWYDKKIVNYDYFKNGPVDSIPEIVPEVTQIAPVKVFTKIGVAPKLPKQVKVTYNTGKEANEAVRWNEIDPDAYKEPGTFEVDGTLENTNIKAKASIVVAKDNEAEKGDKISSADLTAVVDPQFPRIIRYEDPQSNQVIFNGQHEKIDQVMIDGKAYKATAEKQKSEANQAVYNVAVPEIGLRFTTTLTVSEGQELAMKLSDIREEGTKIHTISIPNQGLISVNSTDEGATFAGVVMNTGTNANNGNKNGDTIQDLTTTSQEETKKYMYGFLNTANYAASFWTNAYGDGSVDGSDNNRIHKQTKEAATGFVTTLSSGAWTYRPFDAPEDYTTGETPEVKVKFSKDSNDDNRVDWQDAAIGFRSIMNNPMGAEKVPELVNQRIPFNFASQATNPFLVTLDESKRIYNLTDGLGQMNLLKGYQNEGHDSAHPDYGAIGQRPGGEQALNQLIDEGHKLNAVFGVHINDTESYPEAKGFNEELVDPTKRGWDWLDPSYFIKQRPDTLSGRRYERFKELKQKAPNLDYIYVDVWGNQGESGWASRQLSKEINSLGWFTTNEFPNALEYDSVWNHWSAEKDYGGTTTKGFNSTIVRFIRNHQKDTWIISDNPLLGGAEFEAYEGWVGKTNFNTYRQKTFAINVPTKFLQHYQITNWETTTAADGQIYGTIKLANGAEKVTVTQADANSPRSITLNETEVLKGDAYLLPWNVNGQDKLYHWNPKGGTSTWSLDKKMQGKTNLHLYELTDQGRIDKGAIATTNNQVTIQAEANTPYVIAEPDSIEPMTFGTGTPFKDPGFNEANTLKNNWKVFRGDGEVKKDANGDYVFSSEKERTEIKQDINLPKPGKYSLYLNTETHDRKATVTVKIGGKKYTRTVNNSVAQNYIQADINHTSRKNPQYMQNMRIDFEIPDNAKKGSVTLAVDKGNSVTKFDDLRIVERQTDIMNPDKQTVIKQDFEDTQAVGLYPFVKGSAGGVEDPRIHLSERNEPYTQYGWNGNLVSDVLEGNWSLKAHKQGAGLMLQTIPQNIKFEPNKKYTVQFDYQTDGENVFTAGTINGELKNNNDFKPVGELTSTAADGQTKHYEAEIIGDASGNTTFGIFTTGADKDFIMDNFTVTVESKK | 100 | 2 | 100 | 0 | 2.2 | no significant difference | hydrolysis of the Core 3 disaccharide (in words) [6]: fully hydrolyzing
EngPA: recombinant endo-α-GalNAcase of Propionibacterium acnes (protein, Propionibacterium acnes) MSRTPRGRSIGALAVSAGTMLALIAPTAPAHAETRYRQINQAAITAVAADSATATDPISNTLDGNPDTIWHTTWQNGKDPLPHWIVFKLGDEAVNLGKVEITPRSSSNGSGRMHDYELYTANTKTCNNAAFSSAKPVATGSYGASDTSIRKITFAATKATCVKVKVNSSWGGDGSDEEVSSMAEFNAFTVDGSDPSPDPTPSEPPTPEVPKDAISLSDGTVTVRARRDFPQVIDYTVGHAHMAGRIGSPLTKVRINGADHVATVSAPTTTGSSASWKLTFRDLPGVELTADIKVSDGVMTWSIPHIVDTPDHRVNTVSVPGLTLASVTSTDPKAQLSSANIVVDRNKTGDLFQPLATADVSQDTSWVAMANDSTLAAGFEDNATQDGLVGSAATVARFVHSISQVGGTKVGAIEPATWVHRGKGSATPFPTDSLGNKAVCQLPGGATVKDGIGPDPDTPYVRVKIVADANADGKVDWQDAAVATRDVTMKPTGSGDVANKVITHIPFNIVSQATHPFLRTLDDVKRISLATDGLGQQALLKGYQAEGHDSAHPDYGGNVSHRAGGMKDLEKLTESGRQWNTDFGIHVNLVESYPEANHFGDNILVKPYQKAWDWMEQSYRMDYAKDLGSGQLFARLNQLRKELGAKSNLDWLYFDTNYPAGWQNDRIANALNAEGWRIGSEWSSTYPRYNQWSHWANDENYGTGNKGYSSRIIRFIDNSRRDTWNPDPILGNSNVVEYEGWTSHNDYNAFIANVWQRNLPTKFLQRSDIMSWQDGRIAFANGAVATSSKKSISGHEIPTARTITFDGATVFKEGGSYLLPWSNGGSDRLYYWNPGNGSATWKLTNSWAAQKSVSLFMLTDTGRVKVAEIPVTNRSIRIPATKAKTAYVLYPTSKVPAAKTPNWGEGSHFANPGFYSGDTAGWNARGNVSVKHNDRGNFHLEFGKAQSQISQVLNLPAGDHSLWAWVQIDPTKTRPVGLAVDGTGVTPIDHQKGCGGHAESVITSTTAINATASDEYFGTYHQRLRVAFHSDGRPVTVTLKALAGNAIVSADDFRVVDAAVPSDPHVTPATVLFQNFEDVDTGYWPFVTGSAGMEGDARTQLSRRHEPYTQKGWNGRAMDSVLSGDWSLKMHEERNGIVLRTTTASAPLTGGGTRYRISFDYQADKPGYSFVTGHDKVSGKSVKEVITESHAMGVATSTTHFSTDIVVKDQPAWIGFTHQGEGDMSIDNLRIEKLDPRPISVTSTQAAVFPDACKPTPEPIQPAQPSASAPTTSGSPQAPGTGNRPNRYALPRTGADGAGLGFSSSEAASATAAVGVSRQGR | 100 | 0 | 100 | 0 | 1.8 | no significant difference | hydrolysis of the Core 3 disaccharide (in words) [6]: fully hydrolyzing
